Source: patent publication US20030109431A1
One block for each molecule: values may come before it. Where no end group is shown, it is not given here. The star is where a group is joined. Biotin = O=C1N[C@H]2[C@H](CS[C@H]2CCCCC(=O)*)N1

Legend:
[1] = target: specific cell surface receptor of synovial cells (unidentified), on human RA synovial fibroblasts (human); experiment: flow cytometry competition on synovial cells, unlabeled Fgn 2.5 mg for 3 h then labeled SAC[KBtn] 1 h; signal is of bound SAC[KBtn]
[2] = target: ICAM-1 (Intercellular Adhesion Molecule-1) (human) (UniProt P05362); experiment: cell-based or functional assay
[3] = target: specific cell surface receptor of synovial cells (unidentified), on human RA synovial fibroblasts (human); experiment: flow cytometry competition on synovial cells, unlabeled GPRP 2.5 mg for 3 h then labeled SAC[KBtn] 1 h; signal is of bound SAC[KBtn]
[4] = target: specific cell surface receptor of synovial cells (unidentified), on human RA synovial fibroblasts (human); experiment: flow cytometry on RA #16 synovial fibroblasts, 100 ug control peptide, avidin-FITC detection (avidin-FITC alone 13.71)
[5] = target: specific cell surface receptor of synovial cells (unidentified), on human RA synovial fibroblasts (human); experiment: flow cytometry on RA #16 synovial fibroblasts, 100 ug control peptide, avidin-FITC detection (avidin-FITC alone 3.6 %)
[6] = target: specific cell surface receptor of synovial cells (unidentified), on human RA synovial fibroblasts (human); experiment: flow cytometry competition on synovial cells, unlabeled SAC 2.5 mg for 3 h then labeled SAC[KBtn] 1 h; signal is of bound SAC[KBtn]
[7] = target: specific cell surface receptor of synovial cells (unidentified), on human RA synovial fibroblasts (human); experiment: flow cytometry on RA #16 synovial fibroblasts, 200 ug peptide, avidin-FITC detection (avidin-FITC alone 3.6 %)
[8] = target: specific cell surface receptor of synovial cells (unidentified), on human RA synovial fibroblasts (human); experiment: flow cytometry on synovial cells, SAC[KBtn] 1 h without competitor, avidin-FITC detection (avidin-FITC alone 20.16)
[9] = target: specific cell surface receptor of synovial cells (unidentified), on human RA synovial fibroblasts (human); experiment: flow cytometry on RA #16 synovial fibroblasts, 100 ug peptide, avidin-FITC detection (avidin-FITC alone 3.6 %)
[10] = target: specific cell surface receptor of synovial cells (unidentified), on human RA synovial fibroblasts (human); experiment: flow cytometry on RA #16 synovial fibroblasts, 100 ug peptide, avidin-FITC detection (avidin-FITC alone 13.71)
[11] = target: specific cell surface receptor of synovial cells (unidentified), on human RA synovial fibroblasts (human); experiment: flow cytometry on RA #16 synovial fibroblasts, 200 ug peptide, avidin-FITC detection (avidin-FITC alone 13.71)

Sequence of ICAM-1 (Intercellular Adhesion Molecule-1) (human) (P05362 28-532): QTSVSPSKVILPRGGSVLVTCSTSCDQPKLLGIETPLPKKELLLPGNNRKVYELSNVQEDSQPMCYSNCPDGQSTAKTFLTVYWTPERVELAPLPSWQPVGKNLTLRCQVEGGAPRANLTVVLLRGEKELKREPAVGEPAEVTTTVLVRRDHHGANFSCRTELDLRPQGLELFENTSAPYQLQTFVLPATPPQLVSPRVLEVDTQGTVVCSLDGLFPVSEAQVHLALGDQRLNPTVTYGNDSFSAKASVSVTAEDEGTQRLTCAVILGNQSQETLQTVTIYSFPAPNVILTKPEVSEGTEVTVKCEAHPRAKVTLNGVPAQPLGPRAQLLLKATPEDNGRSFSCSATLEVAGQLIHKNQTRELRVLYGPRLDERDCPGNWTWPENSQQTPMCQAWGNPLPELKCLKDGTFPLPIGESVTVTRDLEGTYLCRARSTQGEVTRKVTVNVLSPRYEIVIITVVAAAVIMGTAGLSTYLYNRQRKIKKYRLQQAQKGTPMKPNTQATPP

adherent T cell numbers, Foreskin line, GPRP 0.1 mg/ml [2]: 51 T cells
adherent T cell numbers, Foreskin line, GPRP 1 mg/ml [2]: 54 T cells
adherent T cell numbers, Foreskin line, IL-1 beta 1 ng/ml [2]: 94 T cells
adherent T cell numbers, Foreskin line, control [2]: 47 T cells
adherent T cell numbers, OA line 15, GPRP 0.1 mg/ml [2]: 92 T cells
adherent T cell numbers, OA line 15, GPRP 1 mg/ml [2]: 113 T cells
adherent T cell numbers, OA line 15, IL-1 beta 1 ng/ml [2]: 66 T cells
adherent T cell numbers, OA line 15, control [2]: 35 T cells
adherent T cell numbers, RA line 7, GPRP 0.1 mg/ml [2]: 184 T cells
adherent T cell numbers, RA line 7, GPRP 1 mg/ml [2]: 153 T cells
adherent T cell numbers, RA line 7, IL-1 beta 1 ng/ml [2]: 116 T cells
adherent T cell numbers, RA line 7, control [2]: 80 T cells
adherent T cell numbers, RA line 8, GPRP 0.1 mg/ml [2]: 99 T cells
adherent T cell numbers, RA line 8, GPRP 1 mg/ml [2]: 97 T cells
adherent T cell numbers, RA line 8, IL-1 beta 1 ng/ml [2]: 58 T cells
adherent T cell numbers, RA line 8, control [2]: 29 T cells
Molecule: T-cell LFA-1 (from UniProt P20701 26-1170; P05107 23-769) (receptor)

Mean Fluorescent Channel [4]: 20.4
% Cells Positive [5]: 10.6%
Molecule: GHRPLDKKREEK(Biotin)

% Cells Positive [7]: 80%
Mean [8]: 51.2
% Cells Positive [9]: 86.3%
Mean Fluorescent Channel [10]: 258
Mean Fluorescent Channel [11]: 125
Molecule: GPRVVERHQSACK(Biotin) [biotinylated amino acid sequence 17-28 of human fibrinogen Aα chain, …[KBtn]]

More lines, now with the values behind:

Molecule: unlabeled fibrinogen (from UniProt P02671 20-629; P02675 31-491; P02679 27-437)
Mean [1]: 21.6

Molecule: H-GPRP-OH [synthetic tetrapeptide Gly-Pro-Arg-Pro]
Mean [3]: 33.6

Molecule: GPRVVERHQSAC [unlabeled …]
Mean [6]: 36.3
